According to article PMC2253824:

Biological target: TTC4, endogenous in Hela cells (human (endogenous in Hela)) (UniProt O95801)
Assay: co-IP; SDS-PAGE of the anti-TTC4 immune pellet stained with colloidal coomassie blue; data not shown

Sequence of TTC4, endogenous in Hela cells (human (endogenous in Hela)) (O95801 whole entry): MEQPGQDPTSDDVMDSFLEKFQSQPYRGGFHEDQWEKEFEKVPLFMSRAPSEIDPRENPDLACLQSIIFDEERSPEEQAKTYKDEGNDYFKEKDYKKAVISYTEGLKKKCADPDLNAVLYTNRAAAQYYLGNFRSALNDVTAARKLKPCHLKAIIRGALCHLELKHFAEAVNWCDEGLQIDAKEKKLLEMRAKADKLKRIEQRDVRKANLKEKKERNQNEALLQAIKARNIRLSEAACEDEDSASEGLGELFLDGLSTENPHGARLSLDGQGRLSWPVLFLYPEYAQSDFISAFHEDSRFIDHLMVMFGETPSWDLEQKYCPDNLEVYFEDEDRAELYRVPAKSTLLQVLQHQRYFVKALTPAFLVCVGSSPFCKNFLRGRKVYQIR
Sequence of HSP70, endogenous in Hela cells (P11142 whole entry): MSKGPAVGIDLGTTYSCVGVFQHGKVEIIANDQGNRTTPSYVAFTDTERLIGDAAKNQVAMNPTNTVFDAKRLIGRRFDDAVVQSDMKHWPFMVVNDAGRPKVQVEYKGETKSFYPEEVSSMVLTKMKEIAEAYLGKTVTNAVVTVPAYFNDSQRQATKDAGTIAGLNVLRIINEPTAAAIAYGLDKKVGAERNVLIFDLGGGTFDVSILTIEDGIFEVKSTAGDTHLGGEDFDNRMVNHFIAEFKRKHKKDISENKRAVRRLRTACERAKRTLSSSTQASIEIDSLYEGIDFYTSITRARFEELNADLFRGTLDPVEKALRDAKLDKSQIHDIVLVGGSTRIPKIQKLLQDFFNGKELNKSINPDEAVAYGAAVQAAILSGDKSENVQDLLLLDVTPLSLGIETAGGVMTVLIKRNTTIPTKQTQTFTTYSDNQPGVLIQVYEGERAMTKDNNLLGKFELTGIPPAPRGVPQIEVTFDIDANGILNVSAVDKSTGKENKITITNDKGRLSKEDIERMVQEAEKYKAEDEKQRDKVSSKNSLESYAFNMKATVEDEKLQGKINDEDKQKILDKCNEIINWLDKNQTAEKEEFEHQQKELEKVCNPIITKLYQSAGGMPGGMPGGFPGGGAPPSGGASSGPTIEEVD

## HSP70, endogenous in Hela cells (from UniProt P11142 1-646) (natural protein)
  level in the immune pellet (colloidal coomassie): 20%
